Data on two substances can be found in article PMC6697062.

For experiment [1], the target named is C6B/IGKV3-15*01 one-armed SEEDbody. As to the kind of experiment: BLI; C6B oaSEEDbody on anti-Fab tips; association with 100 nM CEACAM6 at pH 7.4, dissociation at pH 7.4; 1:1 model. (In general: In BLI a coated tip is dipped into the sample, and binding shifts an interference pattern.)
Experiment [2] addresses C6B/CV2 one-armed SEEDbody. The description is as above.
The target in experiment [3] is C6B/IGKV3-15*01 one-armed SEEDbody. Description: BLI; C6B oaSEEDbody on anti-Fab tips; association with 100 nM CEACAM6 at pH 7.4, dissociation at pH 5.0.
Experiment [4] addresses C6B/CV2 one-armed SEEDbody. The description is as above.
In experiment [5] the target is C6B/IGKV3-15*01 one-armed SEEDbody. Description: BLI; C6B oaSEEDbody on anti-Fab tips; association with 100 nM CEACAM6 at pH 7.4, dissociation at pH 6.0.
In experiment [6] the target is C6B/CV2 one-armed SEEDbody. The description is as above.
Experiment [7] has as its target C5A + K40 one-armed SEEDbody. As to the kind of experiment: BLI; oaSEEDbody on anti-human Fc (AHC) tips; association with 100 nM CEACAM5 at pH 7.4, dissociation at pH 7.4 in kinetic buffer (PBS, 0.1% Tween 20, 1% BSA); 30 C; 1:1 model.
For experiment [8], the target named is C5A + CV1 one-armed SEEDbody. The description is as above.
Experiment [9] concerns the target C5A + IGKV3-15*01 one-armed SEEDbody. Described as above.
The target in experiment [10] is C5A + CV2 one-armed SEEDbody. The experiment is described as above.
In experiment [11] the target is C5A + K39 one-armed SEEDbody. Described as above.
Experiment [12] addresses C5A + CV3 one-armed SEEDbody. The description is as above.

CEACAM6, sequence (P40199 35-320): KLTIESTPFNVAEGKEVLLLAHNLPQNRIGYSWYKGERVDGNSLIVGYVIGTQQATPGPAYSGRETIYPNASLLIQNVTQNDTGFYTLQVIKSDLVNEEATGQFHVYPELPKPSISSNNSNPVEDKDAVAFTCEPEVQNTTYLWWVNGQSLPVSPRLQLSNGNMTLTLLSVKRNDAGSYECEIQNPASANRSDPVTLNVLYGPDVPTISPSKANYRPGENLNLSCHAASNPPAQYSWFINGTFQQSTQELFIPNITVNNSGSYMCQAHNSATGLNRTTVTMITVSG

The term Kd denotes the concentration at which binding is half-saturated. One may read the koff as the rate constant with which the complex falls apart. Low values mean a long-lived complex, high ones a short-lived complex. As to “CEACAM6 (from UniProt P40199 35-320) (natural protein)”, the Kd worked out at 8.77 nM in experiment [1] and 7.73 nM in experiment [2]. In addition, the koff in [1] amounted to 0.000158 s⁻¹; in [2], 0.000262 s⁻¹; in experiment [3], 0.000361 s⁻¹; in experiment [4] it was 0.000768 s⁻¹; in experiment [5], 0.00019 s⁻¹; in [6] it was 0.000142 s⁻¹.
Regarding “recombinant human His-tagged CEACAM5 (from UniProt P06731 35-685) (natural protein)”, the Kd is 3.12 nM in experiment [7]; 4.11 nM in experiment [8]; 0.9 nM in experiment [9]; 4.14 nM in [10]; 4.16 nM in [11]; 2.55 nM in [12].
